Assay results taken from PMC5797146 (Scientific Reports, 2018).

Target: T1, Clostridium difficile toxin A (Clostridioides difficile …, UniProt P16154)
T1 construct: also called TcdA
Experiment: SPR
Details: both partners purified

B1: A26.8 VHH Q101K (VHH)
VHH: QVKLEESGGGLVQAGGSLRLSCAASERTFSRYPVAWFRQAPGAEREFVAVISSTGTSTYYADSVKGRFTISRDNAKVTVYLQMNNLKREDTAVYFCAVNSKRTRLQDPNEYDYWGQGTQVTVSS
notes: source: E. coli TG1, periplasmic extract, purified (IMAC, SEC)
For B1, the Kd was 7.6 nM, the koff was 0.02 s⁻¹ and the kon was 2.7e+06 M⁻¹ s⁻¹.

B2: A26.8 VHH T54Y (VHH)
VHH: QVKLEESGGGLVQAGGSLRLSCAASERTFSRYPVAWFRQAPGAEREFVAVISSYGTSTYYADSVKGRFTISRDNAKVTVYLQMNNLKREDTAVYFCAVNSQRTRLQDPNEYDYWGQGTQVTVSS
notes: as for B1
In the case of B2, the Kd is reported as 38.9 nM, the koff is reported as 0.069 s⁻¹ and the kon is reported as 1.8e+06 M⁻¹ s⁻¹.

B3: A26.8 VHH D107Y (VHH)
VHH: QVKLEESGGGLVQAGGSLRLSCAASERTFSRYPVAWFRQAPGAEREFVAVISSTGTSTYYADSVKGRFTISRDNAKVTVYLQMNNLKREDTAVYFCAVNSQRTRLQYPNEYDYWGQGTQVTVSS
notes: as for B1
For B3, the Kd was 44 nM, the koff was 0.071 s⁻¹ and the kon was 1.6e+06 M⁻¹ s⁻¹.

B4: A26.8 VHH Q106Y (VHH)
VHH: QVKLEESGGGLVQAGGSLRLSCAASERTFSRYPVAWFRQAPGAEREFVAVISSTGTSTYYADSVKGRFTISRDNAKVTVYLQMNNLKREDTAVYFCAVNSQRTRLYDPNEYDYWGQGTQVTVSS
notes: as for B1
In the case of B4, the Kd is reported as 2320 nM.

B5: A26.8 VHH R104W (VHH)
VHH: QVKLEESGGGLVQAGGSLRLSCAASERTFSRYPVAWFRQAPGAEREFVAVISSTGTSTYYADSVKGRFTISRDNAKVTVYLQMNNLKREDTAVYFCAVNSQRTWLQDPNEYDYWGQGTQVTVSS
notes: as for B1
B5 gave a Kd of 165 nM, a koff of 0.055 s⁻¹ and a kon of 300000 M⁻¹ s⁻¹.

B6: A26.8 VHH Q106W (VHH)
VHH: QVKLEESGGGLVQAGGSLRLSCAASERTFSRYPVAWFRQAPGAEREFVAVISSTGTSTYYADSVKGRFTISRDNAKVTVYLQMNNLKREDTAVYFCAVNSQRTRLWDPNEYDYWGQGTQVTVSS
notes: as for B1
Work on B6 yielded a Kd of 1480 nM.

B7: A26.8 VHH T56I (VHH)
VHH: QVKLEESGGGLVQAGGSLRLSCAASERTFSRYPVAWFRQAPGAEREFVAVISSTGISTYYADSVKGRFTISRDNAKVTVYLQMNNLKREDTAVYFCAVNSQRTRLQDPNEYDYWGQGTQVTVSS
notes: as for B1
Binder B7 has a Kd of 13.6 nM, a koff of 0.026 s⁻¹ and a kon of 1.9e+06 M⁻¹ s⁻¹.

B8: A26.8 VHH T56R, Q101K, T103M (VHH)
VHH: QVKLEESGGGLVQAGGSLRLSCAASERTFSRYPVAWFRQAPGAEREFVAVISSTGRSTYYADSVKGRFTISRDNAKVTVYLQMNNLKREDTAVYFCAVNSKRMRLQDPNEYDYWGQGTQVTVSS
notes: as for B1
In the case of B8, the Kd is reported as 2.9 nM, the koff is reported as 0.03 s⁻¹ and the kon is reported as 1.04e+07 M⁻¹ s⁻¹.

B9: A26.8 VHH Q106L (VHH)
VHH: QVKLEESGGGLVQAGGSLRLSCAASERTFSRYPVAWFRQAPGAEREFVAVISSTGTSTYYADSVKGRFTISRDNAKVTVYLQMNNLKREDTAVYFCAVNSQRTRLLDPNEYDYWGQGTQVTVSS
notes: as for B1
For B9, the Kd was 612 nM.

B10: A26.8 VHH T56R, T103M (VHH)
VHH: QVKLEESGGGLVQAGGSLRLSCAASERTFSRYPVAWFRQAPGAEREFVAVISSTGRSTYYADSVKGRFTISRDNAKVTVYLQMNNLKREDTAVYFCAVNSQRMRLQDPNEYDYWGQGTQVTVSS
notes: as for B1
For B10, the Kd was 4.8 nM, the koff was 0.03 s⁻¹ and the kon was 6.4e+06 M⁻¹ s⁻¹.

B11: A26.8 VHH T56R, Q101K (VHH)
VHH: QVKLEESGGGLVQAGGSLRLSCAASERTFSRYPVAWFRQAPGAEREFVAVISSTGRSTYYADSVKGRFTISRDNAKVTVYLQMNNLKREDTAVYFCAVNSKRTRLQDPNEYDYWGQGTQVTVSS
notes: as for B1
For B11, the Kd was 4.1 nM, the koff was 0.05 s⁻¹ and the kon was 1.24e+07 M⁻¹ s⁻¹.

B12: A26.8 VHH D107N (VHH)
VHH: QVKLEESGGGLVQAGGSLRLSCAASERTFSRYPVAWFRQAPGAEREFVAVISSTGTSTYYADSVKGRFTISRDNAKVTVYLQMNNLKREDTAVYFCAVNSQRTRLQNPNEYDYWGQGTQVTVSS
notes: as for B1
B12 gave a Kd of 21.3 nM, a koff of 0.04 s⁻¹ and a kon of 1.9e+06 M⁻¹ s⁻¹.

B13: A26.8 VHH T54R (VHH)
VHH: QVKLEESGGGLVQAGGSLRLSCAASERTFSRYPVAWFRQAPGAEREFVAVISSRGTSTYYADSVKGRFTISRDNAKVTVYLQMNNLKREDTAVYFCAVNSQRTRLQDPNEYDYWGQGTQVTVSS
notes: as for B1
In the case of B13, the Kd is reported as 13.2 nM, the koff is reported as 0.044 s⁻¹ and the kon is reported as 3.6e+06 M⁻¹ s⁻¹.

B14: A26.8 VHH Q106F (VHH)
VHH: QVKLEESGGGLVQAGGSLRLSCAASERTFSRYPVAWFRQAPGAEREFVAVISSTGTSTYYADSVKGRFTISRDNAKVTVYLQMNNLKREDTAVYFCAVNSQRTRLFDPNEYDYWGQGTQVTVSS
notes: as for B1
Binder B14 has a Kd of 5130 nM.

B15: A26.8 VHH T56R, T103R (VHH)
VHH: QVKLEESGGGLVQAGGSLRLSCAASERTFSRYPVAWFRQAPGAEREFVAVISSTGRSTYYADSVKGRFTISRDNAKVTVYLQMNNLKREDTAVYFCAVNSQRRRLQDPNEYDYWGQGTQVTVSS
notes: also called lead double mutant; source: E. coli TG1, periplasmic extract, purified (IMAC, SEC)
Binder B15 has a Kd of 2.3 nM, a koff of 0.019 s⁻¹ and a kon of 8.3e+06 M⁻¹ s⁻¹.

B16: A26.8 VHH T103M (VHH)
VHH: QVKLEESGGGLVQAGGSLRLSCAASERTFSRYPVAWFRQAPGAEREFVAVISSTGTSTYYADSVKGRFTISRDNAKVTVYLQMNNLKREDTAVYFCAVNSQRMRLQDPNEYDYWGQGTQVTVSS
notes: as for B1
B16 gave a Kd of 13.7 nM, a koff of 0.024 s⁻¹ and a kon of 1.8e+06 M⁻¹ s⁻¹.

B17: A26.8 VHH E110Q (VHH)
VHH: QVKLEESGGGLVQAGGSLRLSCAASERTFSRYPVAWFRQAPGAEREFVAVISSTGTSTYYADSVKGRFTISRDNAKVTVYLQMNNLKREDTAVYFCAVNSQRTRLQDPNQYDYWGQGTQVTVSS
notes: as for B1
In the case of B17, the Kd is reported as 33.6 nM, the koff is reported as 0.07 s⁻¹ and the kon is reported as 2.1e+06 M⁻¹ s⁻¹.

B18: A26.8 VHH T56R (VHH)
VHH: QVKLEESGGGLVQAGGSLRLSCAASERTFSRYPVAWFRQAPGAEREFVAVISSTGRSTYYADSVKGRFTISRDNAKVTVYLQMNNLKREDTAVYFCAVNSQRTRLQDPNEYDYWGQGTQVTVSS
notes: as for B1
For B18, the Kd was 6.2 nM, the koff was 0.027 s⁻¹ and the kon was 4.8e+06 M⁻¹ s⁻¹.

B19: A26.8 VHH Q101K, T103R (VHH)
VHH: QVKLEESGGGLVQAGGSLRLSCAASERTFSRYPVAWFRQAPGAEREFVAVISSTGTSTYYADSVKGRFTISRDNAKVTVYLQMNNLKREDTAVYFCAVNSKRRRLQDPNEYDYWGQGTQVTVSS
notes: as for B1
Work on B19 yielded a Kd of 4.2 nM, a koff of 0.023 s⁻¹ and a kon of 5.5e+06 M⁻¹ s⁻¹.

B20: A26.8 VHH N109R (VHH)
VHH: QVKLEESGGGLVQAGGSLRLSCAASERTFSRYPVAWFRQAPGAEREFVAVISSTGTSTYYADSVKGRFTISRDNAKVTVYLQMNNLKREDTAVYFCAVNSQRTRLQDPREYDYWGQGTQVTVSS
notes: as for B1
For B20, the Kd was 13.9 nM, the koff was 0.027 s⁻¹ and the kon was 2e+06 M⁻¹ s⁻¹.

B21: A26.8 VHH D107R (VHH)
VHH: QVKLEESGGGLVQAGGSLRLSCAASERTFSRYPVAWFRQAPGAEREFVAVISSTGTSTYYADSVKGRFTISRDNAKVTVYLQMNNLKREDTAVYFCAVNSQRTRLQRPNEYDYWGQGTQVTVSS
notes: as for B1
B21 showed a Kd of 19 nM, a koff of 0.026 s⁻¹ and a kon of 1.4e+06 M⁻¹ s⁻¹.

B22: A26.8 VHH T56R, Q101K, T103K (VHH)
VHH: QVKLEESGGGLVQAGGSLRLSCAASERTFSRYPVAWFRQAPGAEREFVAVISSTGRSTYYADSVKGRFTISRDNAKVTVYLQMNNLKREDTAVYFCAVNSKRKRLQDPNEYDYWGQGTQVTVSS
notes: as for B1
B22 was tested, and the Kd was 3.2 nM, the koff was 0.047 s⁻¹ and the kon was 1.47e+07 M⁻¹ s⁻¹.

B23: A26.8 VHH T103R (VHH)
VHH: QVKLEESGGGLVQAGGSLRLSCAASERTFSRYPVAWFRQAPGAEREFVAVISSTGTSTYYADSVKGRFTISRDNAKVTVYLQMNNLKREDTAVYFCAVNSQRRRLQDPNEYDYWGQGTQVTVSS
notes: as for B1
In the case of B23, the Kd is reported as 5.3 nM, the koff is reported as 0.014 s⁻¹ and the kon is reported as 2.7e+06 M⁻¹ s⁻¹.

B24: A26.8 VHH S53R (VHH)
VHH: QVKLEESGGGLVQAGGSLRLSCAASERTFSRYPVAWFRQAPGAEREFVAVISRTGTSTYYADSVKGRFTISRDNAKVTVYLQMNNLKREDTAVYFCAVNSQRTRLQDPNEYDYWGQGTQVTVSS
notes: as for B1
B24 gave a Kd of 224 nM.

B25: A26.8 VHH T103K (VHH)
VHH: QVKLEESGGGLVQAGGSLRLSCAASERTFSRYPVAWFRQAPGAEREFVAVISSTGTSTYYADSVKGRFTISRDNAKVTVYLQMNNLKREDTAVYFCAVNSQRKRLQDPNEYDYWGQGTQVTVSS
notes: as for B1
B25 showed a Kd of 8.3 nM, a koff of 0.02 s⁻¹ and a kon of 2.5e+06 M⁻¹ s⁻¹.

B26: A26.8 VHH T56R, T103K (VHH)
VHH: QVKLEESGGGLVQAGGSLRLSCAASERTFSRYPVAWFRQAPGAEREFVAVISSTGRSTYYADSVKGRFTISRDNAKVTVYLQMNNLKREDTAVYFCAVNSQRKRLQDPNEYDYWGQGTQVTVSS
notes: as for B1
B26 was tested, and the Kd was 3.4 nM, the koff was 0.029 s⁻¹ and the kon was 8.6e+06 M⁻¹ s⁻¹.

B27: A26.8 VHH T58K (VHH)
VHH: QVKLEESGGGLVQAGGSLRLSCAASERTFSRYPVAWFRQAPGAEREFVAVISSTGTSKYYADSVKGRFTISRDNAKVTVYLQMNNLKREDTAVYFCAVNSQRTRLQDPNEYDYWGQGTQVTVSS
notes: as for B1
With B27 the Kd was 13.5 nM, the koff was 0.033 s⁻¹ and the kon was 2.5e+06 M⁻¹ s⁻¹.

B28: A26.8 VHH T103W (VHH)
VHH: QVKLEESGGGLVQAGGSLRLSCAASERTFSRYPVAWFRQAPGAEREFVAVISSTGTSTYYADSVKGRFTISRDNAKVTVYLQMNNLKREDTAVYFCAVNSQRWRLQDPNEYDYWGQGTQVTVSS
notes: as for B1
In the case of B28, the Kd is reported as 16.3 nM, the koff is reported as 0.036 s⁻¹ and the kon is reported as 2.4e+06 M⁻¹ s⁻¹.

B29: A26.8 VHH T54W (VHH)
VHH: QVKLEESGGGLVQAGGSLRLSCAASERTFSRYPVAWFRQAPGAEREFVAVISSWGTSTYYADSVKGRFTISRDNAKVTVYLQMNNLKREDTAVYFCAVNSQRTRLQDPNEYDYWGQGTQVTVSS
notes: as for B1
B29 was tested, and the Kd was 35 nM, the koff was 0.056 s⁻¹ and the kon was 1.6e+06 M⁻¹ s⁻¹.

B30: A26.8 VHH T56R, Q101K, T103R (VHH)
VHH: QVKLEESGGGLVQAGGSLRLSCAASERTFSRYPVAWFRQAPGAEREFVAVISSTGRSTYYADSVKGRFTISRDNAKVTVYLQMNNLKREDTAVYFCAVNSKRRRLQDPNEYDYWGQGTQVTVSS
notes: also called lead triple mutant; source: E. coli TG1, periplasmic extract, purified (IMAC, SEC)
B30 gave a Kd of 2 nM, a koff of 0.024 s⁻¹ and a kon of 1.23e+07 M⁻¹ s⁻¹.
